Source: publication PMC5800599

Tests used:
Experiment in all cases: SPR; Fc immobilised on a CM5 chip by amine coupling (400-1000 RU), mFcγRIV flowed over; Biacore T100; 25°C; 20 mM MOPS, 100 mM sodium chloride, 0.05% P20, 1 μM bovine serum albumin; mean of at least two independent experiments
[1] = molecular target: mouse IgG2b Fc I300L, complex-type N-glycan (mouse)
[2] = molecular target: mouse IgG2b Fc I300L, truncated (1)GlcNAc N-glycan (mouse)
[3] = molecular target: mouse IgG2b Fc I300L/K326R/D327A, complex-type N-glycan (mouse)
[4] = molecular target: mouse IgG2b Fc I300L/K326R/D327A, truncated (1)GlcNAc N-glycan (mouse)
[5] = molecular target: mouse IgG2b Fc, complex-type N-glycan (mouse)
[6] = molecular target: mouse IgG2b Fc, truncated (1)GlcNAc N-glycan (mouse)
[7] = molecular target: mouse IgG2c Fc (residues 224-447), complex-type N-glycan (mouse)
[8] = molecular target: mouse IgG2c Fc (residues 224-447), truncated (1)GlcNAc N-glycan (mouse)
[9] = molecular target: mouse IgG2c Fc L300I, complex-type N-glycan (mouse)
[10] = molecular target: mouse IgG2c Fc L300I, truncated (1)GlcNAc N-glycan (mouse)
[11] = molecular target: mouse IgG2c Fc L300I/R326K/A327D, complex-type N-glycan (mouse)
[12] = molecular target: mouse IgG2c Fc L300I/R326K/A327D, truncated (1)GlcNAc N-glycan (mouse)

Kd [1]: 15 nM
Kd [2]: 1800 nM
Kd [3]: 8 nM
Kd [4]: 1300 nM
Kd [5]: 18 nM
Kd [6]: 2800 nM
Kd [7]: 12 nM
Kd [8]: 600 nM
Kd [9]: 9 nM
Kd [10]: 1000 nM
Kd [11]: 9 nM
Kd [12]: 1100 nM
B1: mouse Fc γ receptor IV (receptor)
chain: QAGLQKAVVNLDPKWVRVLEEDSVTLRCQGTFSPEDNSIKWFHNESLIPHQDANYVIQSARVKDSGMYRCQTALSTISDPVQLEVHMGWLLLQTTKWLFQEGDPIHLRCHSWQNRPVRKVTYLQNGKGKKYFHENSELLIPKATHNDSGSYFCRGLIGHNNKSSASFRISLGD
